Assay results taken from the supplement of paper PMC10126150.
± gives the standard deviation of the averaged measurements.

System: ATP
Experiment: switch fluorescence ratio, 500 uM ATP over buffer (Cy3 cluster intensity, sum of 5 cycles each) (fold (ratio)); higher = stronger signal-on switching upon ATP binding; sequences stand for … in TCGTCGGCAGCGTCAGATGTGTATAAGAGACAGTTTTTTTTTTTTTTTTTTTTTTTTT…TC
Conditions: aptamer strand: ATP DNA aptamer (quencher-CACCTGGGGGAGTATTGCGGAGGAAGG + anchor), 100 nM annealed; ATP concentration: 500 uM
Procedure, shortened: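 Imaging in selection buffer was followed by imaging after 15 min with 500 uM ATP at 22 °C, for Cy3-labelled switching-strand clusters annealed to 100 nM quencher-labelled ATP aptamer on a modified Illumina MiSeq flow-cell. Five of these buffer/ATP cycles ran, separated by NaOH stripping and re-annealing. The fluorescence ratio per cluster is summed target-cycle over summed buffer-cycle Cy3 intensity, averaged per switch-domain sequence; clusters outside 100-1000 RFU were removed.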
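Note: ATP exposure 15 min at 22 °C before imaging.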

Sequence	switch fluorescence ratio
AGTTTCGCTC	0.987 ± 0.063
GGGGGTTTAT	1.01 ± 0.017
GGGAGTAGGC	0.731 ± 0.022
TGACTATGAT	0.998 ± 0.015
TGCGGGGGCG	0.992 ± 0.038
ACATTGCGAC	1.137 ± 0.0028
TATTTAATGA	1.54 ± 0.81
GTGGGTATAC	1.01 ± 0.026
GAAGTTCAGG	1.03 ± 0.018
TCATTAGCCT	1.08 ± 0.019
GGTCGGGC	0.969 ± 0.03
AGCATGTGGT	1 ± 0.026
TACCGGCTCA	0.999 ± 0.017
GACATTATAT	1.028 ± 0.0025
TAAAACGGTG	1.05 ± 0.029
GCGTCTAAGG	0.981 ± 0.021
ATACTGAGTT	1.05 ± 0.042
CTGGGGTATG	0.985 ± 0.028
ATTGGTTTCT	1.04 ± 0.074
ATGGAGGTTG	1.03 ± 0.022
CCCGCTGCTT	1.33 ± 0.021
TGGAAGATGG	1.01 ± 0.03
CGATTTTTAG	0.98 ± 0.032

Sequence	switch fluorescence ratio
TTGGTTCGGA	0.993 ± 0.015
CGGGGAAGAT	0.981 ± 0.016
AATGGGTCGT	0.9673 ± 0.0077
TGGTGAGGCT	0.9694 ± 0.0037
TTTCATCTTT	1.04 ± 0.078
CGTGAGGGTC	1 ± 0.059
GCGGAGCGTA	1.06 ± 0.13
AGAGTAACGG	0.995 ± 0.015
ACCTGAATAG	1.14 ± 0.11
TGAGGTTTGA	0.986 ± 0.02
AGTCGGGGGT	0.99 ± 0.024
CTGGGGTTTG	0.956 ± 0.019
AAAAAAAAGC	1.03 ± 0.038
AGAAAAAAGT	1.03 ± 0.12
GGGCGCTAGG	0.971 ± 0.014
GATTTAGATT	1 ± 0.046
ATGAGTGCCA	0.9844 ± 0.0013
ACATTTCTCA	1.04 ± 0.021
TTCGTGTCAG	0.995 ± 0.023
CTATGGATAC	1.61 ± 0.18
AGAAAGAGGT	1.011 ± 0.0096
AATAGGAATG	0.996 ± 0.017
GGGGAGGCAC	0.9854 ± 0.002

Sequence	switch fluorescence ratio
TTAACTCGGA	0.996 ± 0.056
GGGTGTATTT	1.02 ± 0.011
TGAGTCTGTT	1.01 ± 0.028
GATTGGTTCC	1.05 ± 0.036
TTGGTTGGTG	1.03 ± 0.11
ACGGAAGGGA	0.991 ± 0.036
CCAAGGAGAC	1.35 ± 0.052
GATGGTGTGG	0.997 ± 0.015
GGTATGTTAA	0.98 ± 0.014
TTCCGGTAAT	1.23 ± 0.033
GGCGTCAGAC	1 ± 0.031
CGCTAGGAAA	1.006 ± 0.0076
AACGGAAAGG	1.01 ± 0.017
ATAATTTGGT	0.982 ± 0.038
TCTATTCTCC	1.52 ± 0.72
AGTGATGGGG	0.987 ± 0.037
GGGTGATGGA	0.991 ± 0.026
TATTTTTATT	1.01 ± 0.021
TTCTGTTAAC	1.01 ± 0.025
TTTTGGACGC	1.26 ± 0.43
AAAAGACCCT	1.04 ± 0.071
GCACCATCCA	1.03 ± 0.013
TGAGCTAGGT	1 ± 0.033

Sequence	switch fluorescence ratio
ACAAACTGCA	1.17 ± 0.067
GCTGATGATA	0.967 ± 0.026
TAAGTGGGGT	0.979 ± 0.026
TTCAAAGACT	1.02 ± 0.049
TTTCCATTAA	1 ± 0.044
GATAGATCAC	1.03 ± 0.03
GGTGTGAATT	1.02 ± 0.034
TCGGATTATG	0.9669 ± 0.0066
ACTACTGGTT	1.03 ± 0.03
ACCTTAGTGC	1.1 ± 0.048
TAGCACAGTG	1.15 ± 0.15
TATAATCGAG	1 ± 0.014
TTGGGCAACT	1.06 ± 0.07
TATCTAGGGC	1.025 ± 0.0042
ATTCGGGTGT	1.151 ± 0.0081
TTTCAAAAGA	1 ± 0.048
GAGGGTTTGA	1.0098 ± 0.00022
TTCTTATGAT	0.9721 ± 0.0011
AACAGGGCGG	1.01 ± 0.015
ATTGATTTCT	1.012 ± 0.006
TAAGAGAATT	1.02 ± 0.023
AGGGGGCAGG	1.01 ± 0.017
ACTCTAAAAA	1.05 ± 0.012

Sequence	switch fluorescence ratio
AAATAAACGG	1.08 ± 0.14
AGTGGTGGAG	1 ± 0.04
CTTGACAATT	1 ± 0.023
GCCCGTCTGA	0.985 ± 0.075
TGACGAGCTG	1.03 ± 0.035
TAAAGAGTGT	1.01 ± 0.0042
ATCTAGGGTT	0.995 ± 0.022
TTGTTGTGGG	0.986 ± 0.024
ACGCTTAGAC	1.66 ± 0.24
TTGGGGTGAG	0.981 ± 0.022
GCGGATGTCT	1 ± 0.017
TATAAGTGAG	1.02 ± 0.037
GCGTTGTTCG	0.99 ± 0.044
CGCCATGGGT	0.9915 ± 0.0027
CATAATCGCA	1.04 ± 0.021
CTGGTTTAGG	1 ± 0.036
TATTATAGAT	0.99997 ± 0.00069
TATGTAATGG	1.02 ± 0.036
CGTTGAGGTT	0.979 ± 0.026
GTGTGGGAGG	1.04 ± 0.028
CGGGAAAAGA	1.58 ± 0.99
ATGAATAAGG	0.983 ± 0.028
TATGTTGGGT	1.02 ± 0.037

Sequence	switch fluorescence ratio
ATACGGAAAA	1.046 ± 0.004
TAAAGGGGAA	1.01 ± 0.047
ATAAGCAGGA	1.02 ± 0.017
AGGGGGATAG	0.967 ± 0.052
TAAATGGCCA	0.9798 ± 0.0051
AAGGGTGGGA	1.01 ± 0.039
GCATCGGGGT	1 ± 0.032
ATATATGTAC	1.085 ± 0.0016
CAAGGTGGAT	1.051 ± 0.009
AATGGGGCCT	1.03 ± 0.02
AACGAGGGGA	0.9716 ± 0.0045
CGTGAGGATT	1 ± 0.022
ACCGACCGGG	1.074 ± 0.005
TGGGGTTTTG	0.979 ± 0.015
CGCGCGGGTG	1.121 ± 0.011
TTTCTAATTT	1.02 ± 0.015
AGTATAGGGA	1.011 ± 0.01
TGACAGGATT	0.9946 ± 0.0083
GAGCGGGATG	0.986 ± 0.031
TCGGTTTTGC	0.982 ± 0.028
TAGGTCGTTT	0.982 ± 0.01
TTTTATGCGA	1.01 ± 0.02
AGGAGGAAGG	1.05 ± 0.086

Sequence	switch fluorescence ratio
CGGACTATAT	1.07 ± 0.032
ATGTTTTCGG	0.99 ± 0.044
AAATTATGGA	0.969 ± 0.075
TTTCTTTTTT	1 ± 0.024
GTGAGGCGGA	1.07 ± 0.087
TTAGTTGGTA	0.987 ± 0.001
GTGCACGTTG	1.01 ± 0.019
TCGTAGGGGG	0.979 ± 0.072
CATTGGGTGC	1.0458 ± 0.00093
TTCTCAGAGG	1.01 ± 0.029
TTTTTATGC	0.975 ± 0.071
TATTGCCGCA	1.057 ± 0.0085
TAACTCAAGA	0.9979 ± 0.0066
AAGGAGAATA	1.03 ± 0.012
GGCAGCTTTT	1.05 ± 0.088
TCGGTCGTTT	0.976 ± 0.015
TCCTGCAGGA	1.03 ± 0.014
GTGGCAGACC	1.01 ± 0.012
GCGCTTTTGG	0.986 ± 0.048
